# T1: Norrin-Fc (human Norrin K25-S133, HRV 3C site, human IgG1 Fc, C-terminal FLAG) (human), Q00604
# T1 chain: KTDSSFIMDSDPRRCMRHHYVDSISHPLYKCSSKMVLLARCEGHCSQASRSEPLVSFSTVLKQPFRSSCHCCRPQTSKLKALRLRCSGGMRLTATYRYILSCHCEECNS
# Legend:
# [1] = target: LGR4-ECD (LGR4 ectodomain) (human, UniProt Q9BXB1); assay: BLI
# [2] = target: T1, Norrin-Fc (human Norrin K25-S133, HRV …); assay: cryo-EM structure; details: remark: other sources report otherwise
# [3] = target: Human LGR4 (residues A25-Q833), C-terminal Flag tag (human, UniProt Q9BXB1 25-833); assay: cryo-EM structure
binder,measurement,setting,value
NB18 (VHH) VHH: QVQLQESGGGSVQAGGSLRLSCAASGYTYSRTCMAWFRQAPGKEREGIATINSDGTTTYADSVKGRFTISRDNAKNTLSLQMNSLKPEDTAMYYCAAASLSTRGCSRAEWEYRYWGQGTQVTVSS,Kd,[1],0.15 nM
"Norrin-Fc (human Norrin K25-S133, HRV 3C site, human IgG1 Fc, C-terminal FLAG), Q00604 25-133 (Fc fusion) KTDSSFIMDSDPRRCMRHHYVDSISHPLYKCSSKMVLLARCEGHCSQASRSEPLVSFSTVLKQPFRSSCHCCRPQTSKLKALRLRCSGGMRLTATYRYILSCHCEECNS",stoichiometry N,[2],2
"Norrin-Fc (human Norrin K25-S133, HRV 3C site, human IgG1 Fc, C-terminal FLAG) (Fc fusion) KTDSSFIMDSDPRRCMRHHYVDSISHPLYKCSSKMVLLARCEGHCSQASRSEPLVSFSTVLKQPFRSSCHCCRPQTSKLKALRLRCSGGMRLTATYRYILSCHCEECNS",stoichiometry N,[3],1 Norrin chains per LGR4 (2:2)

# — PMC12234955 (Nature Communications, 2025)
